Data published in the supplement of paper PMC10724198.
± gives the standard deviation of the averaged measurements.

system: Saccharomyces cerevisiae; test: protein stability index of tFT-peptide fusion (C-terminal peptide) (PSI (0-1 scale)); higher = more stable (slower turnover); conditions: genetic background: wild type; temperature: 30 C
Method: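 Multiplexed protein stability (MPS) profiling in S. cerevisiae. Random 12-aa peptides (tFT-X12 library) are fused to the C-terminus of a sfGFP-mCherry tandem fluorescent timer, after mCherry and a GGGS linker. Cells are FACS-sorted into 8 mCherry/sfGFP bins and deep-sequenced. The protein stability index (PSI) is the read-weighted bin average, scaled from 0 (unstable) to 1 (stable). Only peptides with >10 reads are reported; cells were grown at 30 °C in SC-His with glucose.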
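Further: PSI is a weighted mean of sequencing reads over stability bins, variants kept only with over 10 reads, mCherry proximal and sfGFP distal, peptide attached via GGGS linker.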

Row | Sequence | protein stability index
1 | ERLLLGLNRRLG | 0.643 ± 0.055
2 | ERLLMLSGLRRA | 0.779 ± 0.1
3 | ERLRLVPRKGLL | 0.714 ± 0.048
4 | ERLRSDSLSYDI | 0.714 ± 0.052
5 | ERSWQEKGVVRG | 0.699 ± 0.06
6 | ERVGLISSRRGC | 0.696 ± 0.014
7 | ERYRDVPVTSNR | 0.724 ± 0.013
8 | ESALPFLYSLSG | 0.703 ± 0.021
9 | ESEGSGVGACGG | 0.681 ± 0.02
10 | ESGPQWLGTFVT | 0.733 ± 0.0094
11 | ESGTVINKNSNK | 0.6661 ± 0.0054
12 | ESQGYGSQAKLA | 0.694 ± 0.028
13 | ESVPPILGQDPL | 0.773 ± 0.035
14 | ETGMSHHINRIW | 0.752 ± 0.054
15 | ETKKEETKRWRR | 0.6789 ± 0.0025
16 | ETVFESFEVKCG | 0.68 ± 0.022
17 | ETVRPYSPMRPG | 0.674 ± 0.016
18 | EVCLTLTTADGH | 0.68826 ± 0.00011
19 | EVEKKKKKKNNK | 0.663 ± 0.04
20 | EVGTSGTWPGSV | 0.714 ± 0.013
21 | EVLLVHWINPNA | 0.687 ± 0.047
22 | EVMGGANDCGVV | 0.689 ± 0.012
23 | EVRLGKDKANRI | 0.691 ± 0.067
24 | EVRSDSFFKCEG | 0.6606 ± 0.0046
25 | EVRTRSSRIHRI | 0.709 ± 0.082

Row | Sequence | protein stability index
26 | EVYAGGESDVMS | 0.637 ± 0.029
27 | EWCGSLVVWTGG | 0.668 ± 0.018
28 | EWGKCGRGLYGC | 0.666 ± 0.033
29 | EWPVGLLREGLG | 0.6177 ± 0.0016
30 | EWVKFCFPIVQS | 0.651 ± 0.048
31 | EYKIKSIERRKK | 0.73 ± 0.04
32 | EYQGARAAGQSL | 0.678 ± 0.02
33 | FACVLVLFPFFL | 0.641 ± 0.099
34 | FAFWGGHSWLSC | 0.791 ± 0.035
35 | FAGNRDQEEERK | 0.706 ± 0.022
36 | FALPSASHFPVP | 0.7289 ± 0.0046
37 | FAPRRDPMQVQY | 0.6744 ± 0.0032
38 | FASIESVENIEM | 0.709 ± 0.07
39 | FAVLGGGVGGGG | 0.683 ± 0.043
40 | FCCVAPLALPRM | 0.686 ± 0.013
41 | FCFLAFLKTPKS | 0.58 ± 0.038
42 | FCPEGGYSVFYL | 0.719 ± 0.019
43 | FCPPMPSVIALH | 0.649 ± 0.024
44 | FCRFCEFIFIFL | 0.499 ± 0.056
45 | FCSCLCGGEFVR | 0.69 ± 0.03
46 | FCSPPTLPPSPS | 0.732 ± 0.024
47 | FCVFVGSSLVGF | 0.659 ± 0.019
48 | FCVQRWWGEGGH | 0.6176 ± 0.0017
49 | FDFISHLYWSIV | 0.582 ± 0.011
50 | FDLPPCVPRARP | 0.767 ± 0.099

Row | Sequence | protein stability index
51 | FDLTFPPPPLPF | 0.719 ± 0.052
52 | FDPTGPIGMRPT | 0.653 ± 0.0017
53 | FDVLGPRVVSWV | 0.633 ± 0.093
54 | FEAVDSLFMLVL | 0.686 ± 0.034
55 | FEFGGGIRGSLG | 0.679 ± 0.048
56 | FEIVARTYNVDT | 0.666 ± 0.023
57 | FESRGEPPDIQV | 0.668 ± 0.049
58 | FESTIKNINNSI | 0.714 ± 0.011
59 | FFAFLLRSPSTS | 0.711 ± 0.064
60 | FFFFPLLSVPDR | 0.6101 ± 0.0026
61 | FFFGFFSVLSLG | 0.606 ± 0.089
62 | FFFPGLLVPLFP | 0.727 ± 0.025
63 | FFLPPPPPPPPL | 0.677 ± 0.015
64 | FFLPTLQLTPYL | 0.795 ± 0.19
65 | FFMPRCCSLALE | 0.644 ± 0.047
66 | FFSHSAPAPFPL | 0.692 ± 0.017
67 | FFVFFPLGGFWL | 0.668 ± 0.085
68 | FFVGFASLRLVL | 0.5517 ± 0.0046
69 | FFVVAPSPSPRL | 0.761 ± 0.0073
70 | FFYYPSFLPSPL | 0.685 ± 0.011
71 | FGFIEGKRLGIT | 0.62 ± 0.041
72 | FGFRLFLPSFSA | 0.6433 ± 0.0029
73 | FGGGGGGGLLWC | 0.739 ± 0.071
74 | FGGLLFTRFGWE | 0.802 ± 0.056
75 | FGLARGMFFLTV | 0.629 ± 0.056

Row | Sequence | protein stability index
76 | FGLCRSLESRQF | 0.6606 ± 0.0026
77 | FGLPPGNWSSGH | 0.782 ± 0.028
78 | FGNVLISMRNRL | 0.834 ± 0.11
79 | FGPLFSEDTRKV | 0.703 ± 0.076
80 | FGRFVLSCFDRK | 0.661 ± 0.019
81 | FGRGGGGFLTLV | 0.647 ± 0.0034
82 | FGSCVVVRRVGF | 0.619 ± 0.056
83 | FGVHCSSPTSGG | 0.6684 ± 0.0013
84 | FGVTRSPLDPLF | 0.665 ± 0.043
85 | FGWEGGEEMAGG | 0.788 ± 0.0097
86 | FHGGRGLLLGMN | 0.649 ± 0.077
87 | FIPPPLALPFYS | 0.674 ± 0.056
88 | FKCWAGVRCGMV | 0.611 ± 0.013
89 | FKLVPCLGPSHF | 0.741 ± 0.047
90 | FLAGGRFLCIVV | 0.593 ± 0.098
91 | FLCPGELSYFCV | 0.666 ± 0.03
92 | FLFRSFACALPS | 0.522 ± 0.0081
93 | FLFSYIEGSPNP | 0.721 ± 0.073
94 | FLFWFLFFCSSR | 0.49 ± 0.022
95 | FLGGVGGLVLIG | 0.6672 ± 0.0047
96 | FLHPLTPSPPLA | 0.711 ± 0.096
97 | FLHPSPIPPPLP | 0.7092 ± 0.0012
98 | FLLKKVLCINWQ | 0.545 ± 0.0028
